{
  "source": "patent US20070237759A1",
  "key": {"[1]": {"target": "PAR-2 expressed on cells, species not stated (Homo sapiens (Human)) (UniProt P55085)", "experiment": "cell-based or functional assay"}, "[2]": {"target": "human PAR-2 (proteinase activated receptor-2) (human) (UniProt P55085)", "experiment": "cell-based or functional assay"}},
  "data": [
    {"substance": "SAM11 monoclonal antibody to PAR-2", "values": [
      {"measurement": "IC50 KNRK, FLIPR Ca2+ mobilization", "setting": "[1]", "result": "> 2000", "unit": "nM"},
      {"measurement": "IC50 HCT-116, FLIPR Ca2+ mobilization", "setting": "[2]", "result": "> 2000", "unit": "nM"}
    ]}
  ]
}
